One molecule from patent US20240400627A1 (YALE UNIVERSITY, published 2024) can be followed below.

This test concerns the target T1, Nicotinamide Nucleotide Transhydrogenase (NNT), endogenous, mouse kidney (mouse, UniProt Q61941 44-1086).
T1 construct: Inner mitochondrial membrane protein; absent in C57BL/6J mice (deletion of exons 7-11 of Nnt)
T1 sequence (looked up): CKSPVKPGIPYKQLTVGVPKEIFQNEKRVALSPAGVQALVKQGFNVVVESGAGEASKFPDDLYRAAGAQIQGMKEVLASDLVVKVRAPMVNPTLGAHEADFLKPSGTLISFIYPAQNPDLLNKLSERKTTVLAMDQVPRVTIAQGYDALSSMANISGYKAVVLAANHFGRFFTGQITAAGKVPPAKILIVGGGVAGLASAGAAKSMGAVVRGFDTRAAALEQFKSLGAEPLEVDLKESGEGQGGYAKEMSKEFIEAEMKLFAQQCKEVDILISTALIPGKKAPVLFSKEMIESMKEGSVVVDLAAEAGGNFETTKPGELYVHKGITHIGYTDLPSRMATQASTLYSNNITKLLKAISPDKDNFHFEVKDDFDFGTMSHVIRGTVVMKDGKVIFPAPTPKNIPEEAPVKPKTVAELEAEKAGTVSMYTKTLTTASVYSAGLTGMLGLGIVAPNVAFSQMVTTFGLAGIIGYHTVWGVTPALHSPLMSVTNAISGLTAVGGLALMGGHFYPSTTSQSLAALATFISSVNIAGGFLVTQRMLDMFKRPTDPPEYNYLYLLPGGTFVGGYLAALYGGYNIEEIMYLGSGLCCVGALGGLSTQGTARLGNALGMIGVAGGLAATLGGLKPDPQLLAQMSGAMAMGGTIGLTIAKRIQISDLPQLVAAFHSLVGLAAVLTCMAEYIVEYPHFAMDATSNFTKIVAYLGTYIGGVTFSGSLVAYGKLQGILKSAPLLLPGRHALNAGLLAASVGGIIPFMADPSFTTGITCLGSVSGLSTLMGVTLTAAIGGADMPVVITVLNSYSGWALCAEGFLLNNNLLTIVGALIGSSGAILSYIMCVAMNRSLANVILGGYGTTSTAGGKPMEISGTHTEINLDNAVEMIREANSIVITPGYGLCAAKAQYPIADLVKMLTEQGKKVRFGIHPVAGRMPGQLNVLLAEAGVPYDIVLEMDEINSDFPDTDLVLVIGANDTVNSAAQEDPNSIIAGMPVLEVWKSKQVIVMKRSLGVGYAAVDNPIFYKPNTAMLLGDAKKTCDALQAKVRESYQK
Kind of test: anti-HA immunoprecipitation from mouse kidney lysates, immunoblot. On the procedure: Homogenates were then sonicated for 30 seconds (2×15 second bursts at 40% power) and incubated for 45 minutes on ice to complete protein solubilization. Lysates were centrifuged at 8000 rpm for 15 minutes. Protein concentrations were measured with the Protein Assay Dye Reagent Concentrate (catalog #5000006, Bio-Rad). Anti-HA magnetic beads (catalog #88837, ThermoFischer Scientific) were equilibrated in lysis buffer (50 μL beads per reaction in 500 μl of lysis buffer) for 10 minutes at room temperature on a rocking shaker, and then incubated with a total of 4 mg of tissue lysate per sample, overnight, at 4° C. Following four 5-minute washes with 1 ml lysis buffer, the dynabeads were magnetically recovered and precipitated proteins were eluted in 60 μl of 2× Laemmli sample buffer (catalog #1610747, Bio-Rad) with 300 mM Dithiothreitol (DTT). One-third of the eluted proteins (20 μl) was loaded per sample per gel for immunoblotting.
The alleles required to produce the Pkd1-KO+/−CTT mice were moved to this NNT-deficient background (J-Pkd1-KO and J-Pkd1-KO+CTT). […] No NNT was detected in glomeruli or Bowman's capsule. This pattern reproduced the one reported in the Human Protein Atlas (Uhlen, et al., Science Vol. 347, 1260419 (2015)). […] NNT was only detected in immunoprecipitates from “N” cystic mice that express CTT and not in those derived from N-Pkd1-KO mice that express NNT but not CTT.

B1: 2HA-PC1-CTT (final 200 amino acids of human polycystin-1, aa 4102-4302, with an N-terminal 2xHA epitope tag) (other, not shown: small tags and cut ends)
chain: VILRWRYHALRGELYRPAWEPQDYEMVELFLRRLRLWMGLSKVKEFRHKVRFEGMEPLPSRSSRGSKVSPDVPPPSAGSDASHPSTSSSQLDGLSVSLGRLGTRCEPEPSRLQAVFEALLTQFDRLNQATEDVYQLEQQLHSLQGRRSSRAPAGSSRGPSPGLRPALPSRLARASRGVDLATGPSRTPLRAKNKVHPSST
notes: Expressed from a BAC transgene in renal epithelial cells of Pkd1-KO+CTT mice; detected as a 37-kDa HA-tagged band; also called 2HA-PKD1-CTT; polycystin-1 C-terminal tail
As for B1, the binding result is reported as “binds”.
